Assay results: US20260042834A1, “ANTI-CORTICOTROPIN-RELEASING HORMONE ANTIBODIES AND POLYCYSTIC OVARY SYNDROME” (HBM ALPHA THERAPEUTICS, INC., priority 2022, published 2026)
Positions count from the first letter of the chain named.

T1: biotinylated CRH (Homo sapiens, UniProt P06850)
T1 construct: purchased GL Biochem 784751
T1 sequence (P06850 154-194): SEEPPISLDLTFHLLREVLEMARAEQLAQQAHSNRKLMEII

B1: PR302341: Series 10 anti-CRH mAb from immunized wildtype mice; VH SEQ ID NO: 280, VL SEQ ID NO: 339 (antibody, V domains shown)
VH: EVQLQQSGPELVKPGASVKMSCKASGYTFTDYFMKWVKQSHGESLEWIGVINPNNGDIFYNQKFKGKATLTVDKSSSTAFMQLNSLTSEDSAVYSCARGTDRALFAYWGQGTLVAVSA
VL: DVLMTQTPLSLPVSLGDQASISCRSGQSIVHSDGNTYLEWYLQRPGQSPRLLIYKVSNRFSGVPDRFSGSGSGTDFTLKISRVGAEDLGIYYCFQGSHIPWTFGGGTKLEVK
modifications: PR302341-1 VH, PR302341-2 VH, PR302341-3 VH, PR302341-4 VH,PR302341-5 VH, PR302341-6 VH, PR302341 VH; PR302341-13 VL, PR302341-14 VL, PR302341-15 VL, PR302341-16 VL,PR302341-17 VL, PR302341-18 VL, PR302341 VL
B2: PR302334-8: humanized variant of Series 9 mAb PR302334; VH SEQ ID NO: 273, VL SEQ ID NO: 332 (antibody, V domains shown)
VH: EVQLVESGGGLVQPGGSLRLSCAASGFTFSTYAMSWVRQAPGKGLEWVASIRSGGTTYYPDSVKGRFTISRDNSKNTLYLQMNSLRAEDTAVYYCTRGIDWGQGTTVTVSS
VL: EIVMTQSPATLSVSPGERATLSCKASQSVNNDVAWYQQKPGQAPRLLIYYASNRYTGIPARFSGSGSGTEFTLTISSLQSEDLAVYFCQQDYSSWTFGGGTKVEIK
modifications: PR302334-10 VH, PR302334-11 VH, PR302334-12 VH, PR302334-14 VH,PR302334-7 VH, PR302334-8 VH, PR302334-9 VH; PR302334-22 VL, PR302334-2 VL, PR302334-8 VL
B3: PR302334-27: humanized variant of Series 9 mAb PR302334; VH SEQ ID NO: 277, VL SEQ ID NO: 330 (antibody, V domains shown)
VH: B2 VH with T77S
VL: DIQMTQSSLSASVSLGDRVTITCKASQSVNNDVAWYQQKPGKAPRLLIYYASNRYTGVPSRFSGSGSGTDFTFTISSLQPEDLATYFCQQDYSSWTFGGGTKVEIK
modifications: PR302334-18 VH, PR302334-26 VH, PR302334-27 VH; PR302334-12 VL, PR302334-25 VL, PR302334-27 VL, PR302334-6 VL
B4: PR302334-10: humanized variant of Series 9 mAb PR302334; VH SEQ ID NO: 273, VL SEQ ID NO: 328 (antibody, V domains shown)
VH: B2 VH
VL: DIVMTQSPDSLAVSLGERATINCKASQSVNNDVAWYQQKPGQPPRLLIYYASNRYTGVPDRFSGSGSGTDFTLTISSLQAEDLAVYFCQQDYSSWTFGGGTKVEIK
modifications: PR302334-10 VH, PR302334-11 VH, PR302334-12 VH, PR302334-14 VH,PR302334-7 VH, PR302334-8 VH, PR302334-9 VH; PR302334-10 VL, PR302334-24 VL, PR302334-26 VL, PR302334-4 VL

Test system: human CRHR2
Test: CRH-induced luciferase reporter blocking assay, CHO-CRE-hCRHR2 cells
Assay type: cell-based
Conditions: CHO-CRE-hCRHR2 cells, 0.1 nM CRH
Experimental: (§1) To create CHO-CRE-hCRHR1, -hCRHR2, -mCRHR1, and -mCRHR2 reporter cell lines, pcDNA3.1-hCRHR1, -hCRHR2, -mCRHR1, and -mCRHR2 were introduced into CHO-CRE cells established above by electroporation as described above. Selection antibiotics hygromycin at 500 μg/ml and G418 at 1,000 μg/ml were employed. Individual established stable cell lines were characterized by both CRH and forskolin stimulation.
Activated GPCR proteins increase production of the intracellular cAMP. CHO-CRE-human CRHR1 stable clone 11 was generated by introduction of pcDNA3.1-human CRHR1 under the selection of G418 and hygromycin. Human CRHR1 expression in CHO-CRE-hCRHR1 Clone 11 was confirmed by flow cytometry (data not shown). To further validate that the cell line was functional, CHO-CRE-hCRHR1 Clone 11 cells were treated with forskolin and CRH peptide. […] Subsequently CHO-CRE-hCRHR2 Clone 32, -mCRHR1 Clone 22, and -mCRHR2 Clone 8 cell lines were established using similar methodology and validated with CRH treatment (data not shown).
Blocking CRHR1 by small molecules or neutralization of CRH peptide can reduce luciferase expression if the CRH-CRHR1 system works in CHO-CRE-hCRHR1 cells. Antalarmin, a small molecule CRHR1 antagonist, blocked CRH-mediated luciferase expression in CHO-CRE-hCRHR1 Clone 11 (data not shown). Furthermore, sheep anti-CRH polyclonal antibody reduced CRH-mediated luciferase expression in these cells (data not shown). Likewise, sheep anti-CRH polyclonal antibody blocked CRH-mediated luciferase expression in CHO-CRE-hCRHR2, CHO-CRE-mCRHR1, and CHO-CRE-mCRHR2 cells (data not shown).
(§2) Cells were digested by trypsin-EDTA (Life technologies, Cat #:12604-013), centrifuged at 1,000 rpm for 5 min, resuspended in growth medium, counted using a cell counter, seeded at a concentration of 5,000 cells per 100 μl in 96-well flat plates, and incubated overnight. 50 μl of 4× serially diluted antibodies was added (8 points, 1/4 diluted by growth medium) to plates containing CHO-CRE-hCRHR1 cells, and 50 μl of 4×CRH (4× is 2 nM, final is 0.5 nM) was added. Similarly, 4×CRH (4× is 0.4 nM, final is 0.1 nM) was added to CHO-CRE-hCRHR2 cells and CHO-CRE-mCRHR1 cells, and 4×CRH (4× is 20 nM, final is 5 nM) was added to CHO-CRE-mCRHR2 cells. Next, plates were incubated 4-6 hours at 37° C. in a CO2 incubator. 60 μl of culture medium was removed, to which was added 60 μl of Bio-Glo luciferase, followed by incubation for 10 min at RT. Plates were read in a luciferase plate reader (EnVision, PerkinElmer).

| IC50 | Molecule |
| --- | --- |
| 0.244 nM | B1 |
| 2.32 nM | B2 |
| 1.65 nM | B3 |
| 2.08 nM | B4 |

Same assay, conditions: Table 9; hCRHR2

| IC50 | Molecule |
| --- | --- |
| ~2.18 nM | B1 |

Test system: mouse CRHR2
Test: CRH-induced luciferase reporter blocking assay, CHO-CRE-mCRHR2 cells
Assay type: cell-based
Conditions: CHO-CRE-mCRHR2 cells, 5 nM CRH
Experimental: as §1, with “stimulation. […]” for “stimulation.”
as §2

| IC50 | Molecule |
| --- | --- |
| 0.849 nM | B1 |
| 2.74 nM | B2 |
| 1.84 nM | B3 |
| 1.98 nM | B4 |

Same assay, conditions: Table 9; mCrhr2

| IC50 | Molecule |
| --- | --- |
| 2.41 nM | B1 |

Biological target: T1, biotinylated CRH
Test: Affinity determination with Octet
Assay type: binding
Conditions: not given
Experimental: Octet® Red 96e was used for affinity measurement. Octet® running buffer was prepared by diluting kinetics buffer 10× (Fortebio, Cat #18-1105) in PBS according to the manufacturer's instructions. Two columns of SA sensors (Fortebio, Cat #18-5019) were hydrated in running buffer for 10 mins, one for ligand capturing and the other for reference. Antibodies were 2-fold diluted and added into a 96-well plate. 30 nM biotinylated CRH (GL Biochem, Cat #784751) was captured by the first column of SA sensors for 20 seconds, while reference sensors were dipped into buffer wells. After a 60-second baseline step, sensors were dipped into analyte and buffer wells successively, with the association and dissociation time of 180 seconds and 800 seconds, respectively. Sensors were regenerated in glycine pH1.5 (Cytiva, Cat #BR-1003-54) before the next cycle. […] Signals of reference wells and reference sensors were subtracted by selecting “Double reference” before data fitting.

| kdis | kon | Molecule |
| --- | --- | --- |
| 2.18e-07 s⁻¹ | 1.01e+06 M⁻¹ s⁻¹ | B1 |
| <1e-07 s⁻¹ | 14700 M⁻¹ s⁻¹ | B2 |
| <1e-07 s⁻¹ | 302000 M⁻¹ s⁻¹ | B3 |
| <1e-07 s⁻¹ | 6840 M⁻¹ s⁻¹ | B4 |
